The target of this test is T1, ClpB, wild type (E. coli, UniProt P63284 1-857).
T1 construct: ClpB, E. coli, wild type; also called wt ClpB; wt-ClpB; source: E. coli BB4561, purified as previously described
Put plainly: co-sedimentation; G6PDH50 aggregates (1 μM) incubated 10 min at 30 °C in refolding buffer with DnaJ, 3.5 μM wt DnaK or variant, with or without 5 μM wt or mutant ClpB, 3 mM ATP with regenerating system, no GrpE; 122,000 x g, 40 min, 4 °C; pellets on SDS-PAGE or NuPAGE, densitometry, controls with native G6PDH subtracted. To be noted: both partners purified.

B1: DnaK_(1–507) (domain or fragment)
chain: not shown
notes: DnaK, E. coli, residues 1-507 (lid deleted); also called Δlid; Δlid-DnaK
As to B1, the binding result is reported as “binds”.
